From paper PMC4835091, “Characterization of the FtsZ C-Terminal Variable (CTV) Region in Z-Ring Assembly and Interaction with the Z-Ring Stabilizer ZapD in E. coli Cytokinesis” (PLoS ONE, 2016)

How the values were obtained:
Assay in all cases: co-sedimentation; FtsZ or CTV mutant 5 μM with ZapD 1 or 5 μM in 50 mM K-MOPS pH 6.5, 50 mM KCl, 2.5 mM MgCl2, 3 μM BSA, 1 mM GTP, room temperature; TLA100.2, 80,000 rpm, 10 min; ZapD in the pellet by SDS-PAGE
Settings in all cases: both partners purified
FtsZ(DQAK) (purified) = molecular target: T1, FtsZ(DQAK) (purified) (E. coli, UniProt P0A9A6 1-383, CTV KQAD replaced by DQAK)
T1 construct: FtsZ of E. coli with the native CTV KQAD replaced by DQAK (net-neutral); pKHH9, pET-21b(+); also called net-neutral CTV mutant; source: E. coli C41(DE3), purified (25% saturated ammonium sulfate cut)
T1 sequence (looked up): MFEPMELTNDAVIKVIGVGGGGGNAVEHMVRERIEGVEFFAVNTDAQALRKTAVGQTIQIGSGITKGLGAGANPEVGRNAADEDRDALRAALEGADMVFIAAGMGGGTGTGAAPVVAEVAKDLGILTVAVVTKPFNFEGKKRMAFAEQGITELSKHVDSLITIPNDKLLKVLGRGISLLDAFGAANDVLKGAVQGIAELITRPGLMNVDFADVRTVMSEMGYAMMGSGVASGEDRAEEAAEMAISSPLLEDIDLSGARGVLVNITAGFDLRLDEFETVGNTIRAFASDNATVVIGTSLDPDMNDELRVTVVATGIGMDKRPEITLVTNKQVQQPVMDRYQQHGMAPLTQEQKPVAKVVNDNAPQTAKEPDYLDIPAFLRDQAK

FtsZ(KQAK) (purified) = molecular target: T2, FtsZ(KQAK) (purified) (E. coli, UniProt P0A9A6 1-383, CTV KQAD replaced by KQAK)
T2 construct: FtsZ of E. coli with the native CTV KQAD replaced by KQAK (net-positive); pKHH8, pET-21b(+); also called net-positive CTV mutant; source: E. coli C41(DE3), purified (25% saturated ammonium sulfate cut)
T2 sequence (looked up): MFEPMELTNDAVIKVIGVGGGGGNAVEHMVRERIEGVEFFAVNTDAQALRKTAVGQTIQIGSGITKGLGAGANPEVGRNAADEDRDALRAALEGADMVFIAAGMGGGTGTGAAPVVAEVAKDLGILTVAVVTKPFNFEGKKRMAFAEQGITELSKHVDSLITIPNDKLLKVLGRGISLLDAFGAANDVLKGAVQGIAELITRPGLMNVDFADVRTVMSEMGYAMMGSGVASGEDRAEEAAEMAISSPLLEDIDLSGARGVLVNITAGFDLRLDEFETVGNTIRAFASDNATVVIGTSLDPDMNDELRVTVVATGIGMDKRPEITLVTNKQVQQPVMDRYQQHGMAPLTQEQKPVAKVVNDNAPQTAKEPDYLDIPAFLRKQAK

FtsZ(RQAR) (purified) = molecular target: T3, FtsZ(RQAR) (purified) (E. coli, UniProt P0A9A6 1-383, CTV KQAD replaced by RQAR)
T3 construct: FtsZ of E. coli with the native CTV KQAD replaced by RQAR (net-positive); pAM3, pET-21b(+); also called net-positive CTV mutant; source: E. coli C41(DE3), purified (25% saturated ammonium sulfate cut)
T3 sequence (looked up): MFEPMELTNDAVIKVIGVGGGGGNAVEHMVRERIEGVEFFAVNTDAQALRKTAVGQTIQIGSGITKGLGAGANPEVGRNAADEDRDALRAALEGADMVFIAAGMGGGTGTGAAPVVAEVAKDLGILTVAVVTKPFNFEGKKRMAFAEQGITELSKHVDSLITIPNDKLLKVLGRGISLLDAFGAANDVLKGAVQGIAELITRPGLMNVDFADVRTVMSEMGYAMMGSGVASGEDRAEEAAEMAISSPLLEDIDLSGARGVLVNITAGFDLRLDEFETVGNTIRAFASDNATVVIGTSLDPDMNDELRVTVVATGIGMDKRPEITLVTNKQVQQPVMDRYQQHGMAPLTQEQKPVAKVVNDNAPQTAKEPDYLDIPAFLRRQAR

FtsZ(QQQQ) (purified) = molecular target: T4, FtsZ(QQQQ) (purified) (E. coli, UniProt P0A9A6 1-383, CTV KQAD replaced by QQQQ)
T4 construct: FtsZ of E. coli with the native CTV KQAD replaced by QQQQ (net-neutral); pLT1, pET-21b(+); also called net-neutral CTV mutant; source: E. coli C41(DE3), purified (25% saturated ammonium sulfate cut)
T4 sequence (looked up): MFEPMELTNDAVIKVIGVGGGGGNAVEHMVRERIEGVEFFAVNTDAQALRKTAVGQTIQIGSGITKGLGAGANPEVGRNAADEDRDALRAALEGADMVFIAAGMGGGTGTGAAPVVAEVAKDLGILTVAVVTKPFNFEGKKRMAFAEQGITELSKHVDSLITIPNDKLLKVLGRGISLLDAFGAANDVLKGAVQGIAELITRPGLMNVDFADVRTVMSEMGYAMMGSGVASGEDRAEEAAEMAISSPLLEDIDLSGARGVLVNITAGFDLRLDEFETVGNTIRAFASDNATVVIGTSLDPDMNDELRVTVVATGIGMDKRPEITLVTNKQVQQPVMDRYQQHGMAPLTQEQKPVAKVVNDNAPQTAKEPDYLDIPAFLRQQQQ

Measured: binding result

B1: ZapD (purified) (natural protein, E. coli, UniProt P36680 1-247, looked up)
chain: MQTQVLFEHPLNEKMRTWLRIEFLIQQLTVNLPIVDHAGALHFFRNVSELLDVFERGEVRTELLKELDRQQRKLQTWIGVPGVDQSRIEALIQQLKAAGSVLISAPRIGQFLREDRLIALVRQRLSIPGGCCSFDLPTLHIWLHLPQAQRDSQVETWIASLNPLTQALTMVLDLIRQSAPFRKQTSLNGFYQDNGGDADLLRLNLSLDSQLYPQISGHKSRFAIRFMPLDTENGQVPERLDFELACC
notes: ZapD, Z-ring stabilizer of E. coli; also called purified ZapD; pET28b-His10-Smt3-ZapD
binds: all assays above
